Patent US20090232830A1

Target: VI1273 envelope protein (HIV-1)
Assay: cell-based or functional assay

Point of comparison: Mab 4E10 (antibody), neutralization, 50% inhibitory concentration 6.25 µg/mL. Against it:
- 2G12 (antibody) — 1.5-fold higher, 9.38 µg/mL
- Mab 2F5 (antibody) — 2-fold lower, 3.13 µg/mL
- X5 (antibody) — higher, > 25 µg/mL
- Z13 (antibody) — higher, > 25 µg/mL
- huMab IgG1 b12 (antibody) — 1.5-fold higher, 9.38 µg/mL
- two-domain soluble CD4 (from UniProt P01730 26-208) (receptor) — higher, > 50 µg/mL

Target: GXE-14 envelope protein (HIV-1)
Assay: cell-based or functional assay

Point of comparison: huMab IgG1 b12 (antibody), neutralization, 50% inhibitory concentration 25 µg/mL. Against it:
- 2G12 (antibody) — higher, > 50 µg/mL
- Mab 2F5 (antibody) — 8-fold lower, 3.13 µg/mL
- Mab 4E10 (antibody) — 1.9-fold lower, 13.3 µg/mL
- X5 (antibody) — higher, > 25 µg/mL
- Z13 (antibody) — higher, > 25 µg/mL
- two-domain soluble CD4 (from UniProt P01730 26-208) (receptor) — 2.7-fold lower, 9.34 µg/mL

Target: VI1793 envelope protein (HIV-1)
Assay: cell-based or functional assay

Point of comparison: Mab 2F5 (antibody), neutralization, 50% inhibitory concentration 1.17 µg/mL. Against it:
- 2G12 (antibody) — 5.3-fold higher, 6.25 µg/mL
- Mab 4E10 (antibody) — 2.7-fold higher, 3.13 µg/mL
- X5 (antibody) — higher, > 25 µg/mL
- Z13 (antibody) — higher, > 25 µg/mL
- huMab IgG1 b12 (antibody) — higher, > 100 µg/mL
- two-domain soluble CD4 (from UniProt P01730 26-208) (receptor) — 21-fold higher, 25 µg/mL

Target: 14/00/4 (A662) mutant Env (HIV-1)
Assay: cell-based or functional assay

Point of comparison: Mab 2F5 (antibody), neutralization ID50 6.25 µg/mL. Against it:
- Mab 4E10 (antibody) — within 1.5-fold, 9.34 µg/mL

Target: NYU1423 envelope protein (HIV-1)
Assay: cell-based or functional assay

Point of comparison: X5 (antibody), neutralization, 50% inhibitory concentration 25 µg/mL. Against it:
- 2G12 (antibody) — the same, 25 µg/mL
- Mab 2F5 (antibody) — the same, 25 µg/mL
- Mab 4E10 (antibody) — the same, 25 µg/mL
- huMab IgG1 b12 (antibody) — higher, > 100 µg/mL
- two-domain soluble CD4 (from UniProt P01730 26-208) (receptor) — the same, 25 µg/mL

Point of comparison: Mab 4E10 (antibody), Mab ID50 (neutralization) 25 µg/mL. Against it:
- Mab 2F5 (antibody) — the same, 25 µg/mL

In the case of Mab 2F5 (antibody), the neutralization ID50 is reported as 17.7 µg/mL.

Target: 14/00/4 envelope protein (HIV-1)
Assay: cell-based or functional assay

Point of comparison: “two-domain soluble CD4 (from UniProt P01730 26-208) (receptor)”, neutralization, 50% inhibitory concentration 0.59 µg/mL. Against it:
- 2G12 (antibody) — higher, > 50 µg/mL
- Mab 2F5 (antibody) — lower, < 0.39 µg/mL
- Mab 4E10 (antibody) — 3.3-fold higher, 1.96 µg/mL
- X5 (antibody) — higher, > 25 µg/mL
- Z13 (antibody) — higher, > 25 µg/mL
- huMab IgG1 b12 (antibody) — higher, > 100 µg/mL

Point of comparison: Mab 4E10 (antibody), neutralization ID50 0.9 µg/mL. Against it:
- Mab 2F5 (antibody) — 2-fold lower, 0.45 µg/mL

Target: 93BR029 envelope protein (HIV-1)
Assay: cell-based or functional assay

Point of comparison: 2G12 (antibody), neutralization, 50% inhibitory concentration 18.8 µg/mL. Against it:
- Mab 2F5 (antibody) — 48-fold lower, 0.39 µg/mL
- Mab 4E10 (antibody) — 48-fold lower, 0.39 µg/mL
- X5 (antibody) — not separable, < 25 µg/mL
- Z13 (antibody) — higher, > 25 µg/mL
- huMab IgG1 b12 (antibody) — higher, > 100 µg/mL
- two-domain soluble CD4 (from UniProt P01730 26-208) (receptor) — lower, < 0.39 µg/mL

Target: R2 envelope protein (HIV-1)
Assay: cell-based or functional assay

Point of comparison: Mab 4E10 (antibody), neutralization, 50% inhibitory concentration 3.13 µg/mL. Against it:
- 2G12 (antibody) — higher, > 50 µg/mL
- Mab 2F5 (antibody) — 4-fold lower, 0.78 µg/mL
- X5 (antibody) — not separable, < 6.25 µg/mL
- Z13 (antibody) — higher, > 25 µg/mL
- huMab IgG1 b12 (antibody) — 8-fold higher, 25 µg/mL
- two-domain soluble CD4 (from UniProt P01730 26-208) (receptor) — 4-fold lower, 0.78 µg/mL

Target: CA1 envelope protein (HIV-1)
Assay: cell-based or functional assay

Point of comparison: Mab 4E10 (antibody), neutralization, 50% inhibitory concentration 12.5 µg/mL. Against it:
- 2G12 (antibody) — higher, > 50 µg/mL
- Mab 2F5 (antibody) — higher, > 12.5 µg/mL
- X5 (antibody) — higher, > 25 µg/mL
- Z13 (antibody) — higher, > 25 µg/mL
- huMab IgG1 b12 (antibody) — higher, > 100 µg/mL
- two-domain soluble CD4 (from UniProt P01730 26-208) (receptor) — lower, < 0.39 µg/mL

Target: NYU1026 (T662) mutant Env (HIV-1)
Assay: cell-based or functional assay

Point of comparison: Mab 4E10 (antibody), neutralization ID50 0.78 µg/mL. Against it:
- Mab 2F5 (antibody) — 2.5-fold lower, 0.31 µg/mL

Target: NYU1026 envelope protein (HIV-1)
Assay: cell-based or functional assay

Point of comparison: Mab 2F5 (antibody), neutralization ID50 3.13 µg/mL. Against it:
- Mab 4E10 (antibody) — 3.3-fold higher, 10.4 µg/mL

Target: LY109 envelope protein (HIV-1)
Assay: cell-based or functional assay

Point of comparison: huMab IgG1 b12 (antibody), neutralization, 50% inhibitory concentration 100 µg/mL. Against it:
- 2G12 (antibody) — not separable, > 25 µg/mL
- Mab 2F5 (antibody) — 15-fold lower, 6.64 µg/mL
- Mab 4E10 (antibody) — 5.3-fold lower, 18.8 µg/mL
- X5 (antibody) — not separable, > 25 µg/mL
- Z13 (antibody) — not separable, > 25 µg/mL
- two-domain soluble CD4 (from UniProt P01730 26-208) (receptor) — not separable, > 25 µg/mL

Point of comparison: Mab 2F5 (antibody), Mab ID50 (neutralization) 3.1 µg/mL. Against it:
- Mab 4E10 (antibody) — 4-fold higher, 12.5 µg/mL

Target: VI843 envelope protein (HIV-1)
Assay: cell-based or functional assay

Point of comparison: 2G12 (antibody), neutralization, 50% inhibitory concentration 6.25 µg/mL. Against it:
- Mab 2F5 (antibody) — higher, > 50 µg/mL
- Mab 4E10 (antibody) — 2-fold higher, 12.5 µg/mL
- X5 (antibody) — higher, > 25 µg/mL
- Z13 (antibody) — higher, > 25 µg/mL
- huMab IgG1 b12 (antibody) — 8-fold higher, 50 µg/mL
- two-domain soluble CD4 (from UniProt P01730 26-208) (receptor) — higher, > 50 µg/mL

Target: VI1249 envelope protein (HIV-1)
Assay: cell-based or functional assay

Point of comparison: X5 (antibody), neutralization, 50% inhibitory concentration 25 µg/mL. Against it:
- 2G12 (antibody) — higher, > 50 µg/mL
- Mab 2F5 (antibody) — 26-fold lower, 0.98 µg/mL
- Mab 4E10 (antibody) — 26-fold lower, 0.98 µg/mL
- Z13 (antibody) — higher, > 25 µg/mL
- huMab IgG1 b12 (antibody) — 16-fold lower, 1.56 µg/mL
- two-domain soluble CD4 (from UniProt P01730 26-208) (receptor) — 8-fold lower, 3.13 µg/mL

Target: 24/00/4 envelope protein (HIV-1)
Assay: cell-based or functional assay

Point of comparison: Mab 2F5 (antibody), neutralization, 50% inhibitory concentration 1.17 µg/mL. Against it:
- 2G12 (antibody) — higher, > 50 µg/mL
- Mab 4E10 (antibody) — 3.3-fold higher, 3.91 µg/mL
- X5 (antibody) — higher, > 25 µg/mL
- Z13 (antibody) — higher, > 25 µg/mL
- huMab IgG1 b12 (antibody) — higher, > 100 µg/mL
- two-domain soluble CD4 (from UniProt P01730 26-208) (receptor) — higher, > 50 µg/mL

Target: NYU1423 (T662) mutant Env (HIV-1)
Assay: cell-based or functional assay

Point of comparison: Mab 2F5 (antibody), Mab ID50 (neutralization) 12.5 µg/mL. Against it:
- Mab 4E10 (antibody) — the same, 12.5 µg/mL

With Mab 2F5 (antibody) the neutralization ID50 was 10.4 µg/mL.

Target: VI423 envelope protein (HIV-1)
Assay: cell-based or functional assay

Point of comparison: Mab 2F5 (antibody), neutralization, 50% inhibitory concentration 1.96 µg/mL. Against it:
- 2G12 (antibody) — 13-fold higher, 25 µg/mL
- Mab 4E10 (antibody) — 3.2-fold higher, 6.25 µg/mL
- X5 (antibody) — not separable, < 6.25 µg/mL
- Z13 (antibody) — higher, > 25 µg/mL
- huMab IgG1 b12 (antibody) — 16-fold higher, 31.2 µg/mL
- two-domain soluble CD4 (from UniProt P01730 26-208) (receptor) — 26-fold higher, 50 µg/mL

Target: VI1399 envelope protein (HIV-1)
Assay: cell-based or functional assay

Point of comparison: huMab IgG1 b12 (antibody), neutralization, 50% inhibitory concentration 0.78 µg/mL. Against it:
- 2G12 (antibody) — 64-fold higher, 50 µg/mL
- Mab 2F5 (antibody) — 2-fold higher, 1.56 µg/mL
- Mab 4E10 (antibody) — 4-fold higher, 3.13 µg/mL
- X5 (antibody) — not separable, < 25 µg/mL
- Z13 (antibody) — higher, > 25 µg/mL
- two-domain soluble CD4 (from UniProt P01730 26-208) (receptor) — 8-fold higher, 6.25 µg/mL

Target: MACS#4 envelope protein (HIV-1)
Assay: cell-based or functional assay

Point of comparison: 2G12 (antibody), neutralization, 50% inhibitory concentration 4.69 µg/mL. Against it:
- Mab 2F5 (antibody) — within 1.5-fold, 3.13 µg/mL
- Mab 4E10 (antibody) — 1.7-fold higher, 7.82 µg/mL
- X5 (antibody) — 5.3-fold higher, 25 µg/mL
- Z13 (antibody) — higher, > 25 µg/mL
- huMab IgG1 b12 (antibody) — 3-fold lower, 1.56 µg/mL
- two-domain soluble CD4 (from UniProt P01730 26-208) (receptor) — 3-fold lower, 1.56 µg/mL

Target: 24/008 envelope protein (HIV-1)
Assay: cell-based or functional assay

Point of comparison: Mab 4E10 (antibody), neutralization, 50% inhibitory concentration 25 µg/mL. Against it:
- 2G12 (antibody) — 32-fold lower, 0.78 µg/mL
- Mab 2F5 (antibody) — higher, > 50 µg/mL
- X5 (antibody) — higher, > 25 µg/mL
- Z13 (antibody) — higher, > 25 µg/mL
- huMab IgG1 b12 (antibody) — higher, > 100 µg/mL
- two-domain soluble CD4 (from UniProt P01730 26-208) (receptor) — 5.3-fold lower, 4.69 µg/mL

Target: LY109(N662T) mutant Env (HIV-1)
Assay: cell-based or functional assay

Point of comparison: Mab 2F5 (antibody), Mab ID50 (neutralization) 0.39 µg/mL. Against it:
- Mab 4E10 (antibody) — 2-fold higher, 0.78 µg/mL
